Experimental data taken from the DeepSol protein solubility set.

Assay: soluble on expression in E. coli; label from the status in PepcDB or PDB records

| Sequence | soluble on expression in E. coli |
| --- | --- |
| MSLKVALLQIDTVVGDIVGNAARIADAVREAASLGARLCVTPELALCGYPPRDLLLQDDFVPACRKALEALAQQLRDLPPVLVGAPVPNPSPVGNPIHNCAVLLREGKVTVATRKVLLPNYDVFDERRYFESGVGCGVVTIDGWRFGVTICEDVWNDKTFWQEHRHYENDPVADLMAGGADAILNLSASPFTLGKQAVRERMLSRVAFRYRVSVLYANQVGGNDDLVFAGKSIAFDATGTLIARGRSFAEDIVMVDVAQATGTITAEPTSDEEQVWKALVLGTRDYARKCGFDGAVLGLSGGIDSALVAAVAAEALGPDKVLGVLMPSPHSSEGSVTDALALASSLGIATCTIPIGDLMHGFEAALAQAFAGREADVTEENIQSRIRGNLLMALSNKQRRLLLTTGNKSELAVGYCTIYGDMAGGLAVIADLPKTLVYRVAHWLNERDTSHGHEGREARETIPSAILTKEPSAELRPGQRDSDSLPPYDVLDGILERLVELRRSAADIVAEGYDVETVRKVLRLVCNAEFKRRQAPPGLKVTDRAFGTGWRMPVAARVNLGEGHHHHHH | soluble |
| MGHHHHHHSHMSVHKLTDLRDNSTNWKINVKILSIWNHPPNSHGEITTMILHDDKNNRVDATIPQGNYHNPFCPFLKPGTWIHISDFRVVVPQSRVRYSSFRFHIKFIWETSVHPLPELVKRDFFD | not soluble |
| MGSDKIHHHHHHMKLPRFGVEEWLNVHENSAIYDIAGVSISSLTLEELFALSGTNPEDFYKKLQGTKLNYGWIEGSPAFKKSVSQLYTGVKPEQILQTNGATGANLLVLYSLIEPGDHVISLYPTYQQLYDIPKSLGAEVDLWQIEEENGWLPDLEKLRQLIRPTTKMICINNANNPTGAVMDRTYLEELVEIASEVGAYILSDEVYRSFSELDVPSIIEVYDKGIAVNSLSKTYSLPGIRIGWVAANHQVTDILRDYRDYTMICAGVFDDLVAQLALAHYQEILERNRHILEENLAILDQWIEEEPLVSYIRPAVVSTSFVKIAVDMPMEDFCLQLLQEHGVLLVPGNRFERDGYVRLGFACEQETLIKGLEKLSQFLRRFDKEN | not soluble |
| MPREESESPLLVYEDPRHTPYTPFKYARKDEEERSSGGGKSPPKKAPKAQDRMSLRDKFEAAPTTKKRKTAQDPADELLQAIKPLFNQVKKEMADQLADQLGRFNEQLDMAVNSFSDEIVKLKADHALAEKNVDTYAQKVSGMFQRADMMSANVQEQRTQQAEDNRMASKARDRIIYDIAQVATNMKTMSETIAKIDAREEQAAQKQAERHTPQGGQGSLEPALKCPLCKRHHAPENCTIIRNGLDRREEAEKIKMCIQCLEVGVTNDDWVHEGCPKEKEQCTRCTKYMKPGEIAQTHHNATFCLMLTSKQYKLERKGSPSDRDYSPKGRRGPIRSRHNRYGG | not soluble |
| MSFKDPPTLQQLARRSLLKDEALTISALPNLPVQLFPPLFKDAFTSRQRKILSLMVATWPFPVLPVGALCGIDHLETLKAVLDGLDLLMSQKDRPSRWNLQVLDLRDAHQDFWDGWAGLLHEVCSQDVFGKNQPVGNHPIPGGKQTISIKMNLSLKYCRRHSHCENLNYLYYWAKQRKDVIQVIFEKLEFTGKHCLRLKLWRLLKLSFVASIQELTIKSIHWDIYNLALIASCLGQMKNLQKLILMNIRRPSSLTDLQEARIITEIFSEFSKLHKLQHLYVNDVYFLKERLDLMLRCFERPLETLTITYCKLSESDMRYLSQCPSIHQLKYLDMSYTTFKPSSHRFLGFLGSLLERLTATLQTLKLECFHLTDSRIRDLLPGLSQCSQLTEVDFVENKFSMVSLKTLLQHTANLTQLTLEKYPAPDEVYDDSLCVIPDRFVQLCSELMNTLKGVRQPKQVYFESTIYSPNFEYLVYNLEGMVSSEPLRRRGRGMVIYISG | not soluble |
| MVSTHSSQYITDFTPVPAEPGKSPLALLAKTCETIGLPEGSSKKNGASSSSSPQGKKDEKNHILHHQHHQQQQQSKQKSSPRSTPQSKEPTLTFPGLPKPSFPMGMPGMMQGFPFFNPMMTAYGCFPGAFPMSQGFMGAQRLPCPFAMMRQPCANPACVQCPSSSSNAAKNGQMTAEMMSQFAAHPLFSMYAGMMPGVPTSSYQALLAASAAASTSAGPTDYSNVASTSKASPQPKPTAQKSQKSAKFPCNWVDSDVPCGKVFDEENELASHVKKMHAPSPSSSASSEQSTSTGKASRSSTTTPHRFNPYGKPVAPAPPTMQQMGMNMAMNPLVLPFSLQAMYSNRLMSTVAHQ | not soluble |
| MGAIAPSSNILAKAMVDAIDFEVAKCIVELGPGTGSFTKEIMKRKKKRTTFILIEINEVFFKKLQKQYEDDASVVVIHGSAENIQRYVEELQIKGVDYVLSGLPFTSLPKEESSRILNNVMESLRENGRFITFQYSLVKKGFIEDFFPDIQLKKVWFNFPPAYVFSCKKSLEHHHHHH | soluble |
| MEQELISKKELLELTGISYGQLYRWKRKKLIPEEWFIRKSTFTGQETFFPKEKILARIEKIKELKDELSLDELAGMFAPDPAAVVLTKEEVIKRHIVSNVALQWLSDQLGDRQDVSFGQLLSLYIVDRLLRSGEINIEEGKNIWMMFESHYPKLQGKSCELVVLRKMGVTVCLLVEEAAGLYVEEGAKLVARLHVPTYIEELKLTISEG | not soluble |
| HHHSSGLTPRGSQMKKIAFGCDHVGFILKHEIVAHLVERGVEVIDKGTWSSERTDYPHYASQVALAVAGGEVDGGILICGTGVGISIAANKFAGIRAVVCSEPYSAQLSRQHNDTNVLAFGSRVVGLELAKMIVDAWLGAQYEGGRHQQRVEAITAIEQRRN | soluble |
| MGSDKIHHHHHHMIMEELAKKIEEEILNHVREPQIPDREVNLLDFGARGDGRTDCSESFKRAIEELSKQGGGRLIVPEGVFLTGPIHLKSNIELHVKGTIKFIPDPERYLPVVLTRFEGIELYNYSPLVYALDCENVAITGSGVLDGSADNEHWWPWKGKKDFGWKEGLPNQQEDVKKLKEMAERGTPVEERVFGKGHYLRPSFVQFYRCRNVLVEGVKIINSPMWCVHPVLSENVIIRNIEISSTGPNNDGIDPESCKYMLIEKCRFDTGDDSVVIKSGRDADGRRIGVPSEYILVRDNLVISQASHGGLVIGSEMSGGVRNVVARNNVYMNVERALRLKTNSRRGGYMENIFFIDNVAVNVSEEVIRINLRYDNEEGEYLPVVRSVFVKNLKATGGKYAVRIEGLENDYVKDILISDTIIEGAKISVLLEFGQLGMENVIMNGSRFEKLYIEGKALLK | not soluble |
| MDLHSGLPYWVVKNSLLDYFHPLEDDFSTDIVVVGSGITGALMVHELCSAGLRCCMVDKRSIATGSSIASTALLQYEIDVPLCEMAEIIGEDNAVSAYRASLASIADIEKVLKETGVDADFEKRPSLFYASIPKDIELIEKEYVIRKKHNLPVRLLGKEEIKKLYNIEVPGNALLNRVSAQMDAYKATTGLLLYHMKKDGLEIFTHTGVTECVEMPEGYIIETDRGHKIECKYVIIASGFEAGKFLSREIMDLTSTYALVSHPVDSKDLWPEQCLIWETAEPYLYIRTTRGNRIIVGGEDEKFSDPERRDALLRKKTLVLEKKFRRLFPSIPFKTEMAWCGTFSTTKDGLPFIGNCPDKDRMFFDLGYGGNGITFSMIGAQIICKKLQGIDDERGRIFGYERIEKYWLEHHHHHH | not soluble |
| MRCVVYSIAKSSPLELVKIYQKQCRQFDCELELVDLFPKNTANAQKVSKKLAQKSYSLAFEPYLNPKAKNIALHPKAQRGDSFAFSKMLENHLNINFFIAGAYGFEENFLKDCQAWSLSEMTFSHEVAKIVLCEQIYRALSIIFKHPYHKLEHHHHHH | not soluble |
| MTKTEGKTASAAVKDILLSNPDGLREVIRTVMQEVLEAEMDEALGAAKGERTPERLGYRSGHYGRTLITRVGKLELRVPQDRSGHFSTELFERYQRSERALVATLAEMYVQGVSTRKVKAITEELCGHAFSASSISAINKRLDESLKAFAERSLEEPFAYLILDARYEKVREAGVVMSQAVLIAVGIDWDGRRQILSVEMAGRESRSAWKDFLVRLKGRGLKGVELVVSDDHAGLVAAIGEVIPEAAWQRCYVHFLRNALDHLPRKHGDDCLQELRWLYDRRDLDEAKADLAAWLGKWSVRYPRLTSWVEETIEQTLTFFRLPRQHHKHLKSTNMLERLNEEIRRRTYVVRIFPNTESCLRLVRALAVETHENWMEANRYINMDDLREHKKLALRQAA | not soluble |
| MTEKTTVKTLKDVVVRFCGDSGDGMQLTGTIFSDLSAVFGNTISTFPDYPAEIRAPQGTLGGVSGFQVHIGTDLVRTPGDLADVLVAMNPAALKVNRTHVRRDSIIIIDSDSFMASDLEKAEIASEDFMTELGLTTQELFTVPISSMVKKSTAEFGLDVKAALRCKNMFALGLVCWLFDRPTQHAIDYLNRKFGKKEAILNANIKALADGFNYGHNTHATATTYRIEGRKQTPGVYMDISGNKATAYGLVAAAEHANLNL | soluble |
| MGSDKIHHHHHHMTPQPLADNLSPPDPARLAQSIKDWGRELGFQQVGISDVELGEHEAHLQRWLEAGYHGEMDYMAAHGSKRSRPAELVPGTLRVISLRMDYLPGDTRMAQVLATPEKAYVSRYALGRDYHKLIRKRLQQLAERIQAEVGPFGFRAFVDSAPVLEKAIAEQAGLGWIGKNTLVLNRKAGSYFFLGELFVDMPLPVDPAMDSEHCGRCSACLDICPTAAFVGPYRLDARRCISYLTIEYKGAIPLELRPLIGNRVFGCDDCQIVCPWNRFARPTGQGDFQPRHSLDNAELAELFLWSEEEFLGRTEGSPLRRAGYERWLRNLAVGLGNAPSTIPVLEALKARRGFPSELVREHVEWALRRHGET | not soluble |
| ALSRYLLTESPAVCVLSGERGVGTTTLLNRILNKVKNATPIYINCPYDGYSALLPELAKQLGLDEESSERDILQYLRNSDTCYLLAFDSAQRLVKPKVNGLADLMKLTNLLRRARKSHRVVLAIEKSCWRFIDRARGERLLFDLVTFMP | not soluble |
| MSLASVKEAAAVRPPLNQILFGPPGTGKTYEAIEKALEILDPSFLLQLGDDESNERRRALKRRYDELAKEGLVQFVTFHQSFSYENFVEGLSASSDPDTKQVRYEVEDGVFKELCESARTRLVRRSDDAPLELSGRRIWKLSLGDSITEGHIFEECMEKGLALMGFGNNADFSQCQSREDIQKMFAASGEPLSLGAYPITAIKTFVCQMKLGDLIVVSEGNLKFRAIGEITGDYQLLPRDSDTYSQARPVRWLRGYKPALPYGALMENRFSQMTVYELRAGSIDHDKFRELLKSECIATGADRPHVLIIDEINRGNVSRIFGELITLIEPSKRSGAAEALEVLLPYSKDPFSVPDNVYLIGTMNTADRSLAGLDIALRRRFDFVEMAPRPDKLTGVKVAEIDISAVLETMNRRIEVLLDREHRLGHAYFMSLENSNDLSRLSNIFRQQIIPLLQEYFFEDWQRIAWILNDHRKDERFRFIVPAPYSVDSLFGDTGQVAQDSKAWRMNEEAFHKPQSYLGIVGDGKEGHHHHHH | soluble |
| MSLSIPADIASLISDKYKSAFDNGNLKFIQTETTKTKDPKTSMPYLISHMPSLIEKPERGQTPEGEDPLGKPEEELTVIPEFGGADNKAYKLLLNKFPVIPGHTLLVTNEYQHQTDALTPTDLLTAYKLLCALDNEESDKRHMVFYNSGPASGSSLDHKHLQILQMPEKFVTFQDRLCNGKEHFLPTFNTEPLQDAKVSFAHFVLPMPESEETVDEDLLAMCYISILQRALTFFQDWLNENPELKKSYNLMLTKEWICVVPRSKAFSDEMKIGFNSTGYCGMILTKNDEVFSKITEKPELINDILLECGFPNTSGQKPNEYNYEGHHHHHH | soluble |
| MSSAQRVVITPGEPAGSGPDLVVQLAQRAWPIELVVCADGALLTERAAMLGLPLSLLPYSPDVPAAPQPAGTLTLLPVSLRAPAISGQLTVENGPYVVETLARACDGCLNGEFAALITGPVHKGVINDAGISFTGHTEFFEERSQAKKVVMMLATEELRVALATTHLPLRAIADAITPALLHEVIAILHHDLRTKFGIAEPRILVCGLNPHAGEGGHMGTEEIDTIIPVLDELRAQGMKLNGPLPADTLFQPKYLDNADAVLAMYHDQGLPVLKYQGFGRGVNITLGLPFIRTSVDHGTALELAGRGKADVGSFITALNLAIKMIVNTQ | soluble |
